Data published in the supplement of paper PMC10126150.
± gives the standard deviation of the averaged measurements.

Tested on: ATP
Test: switch fluorescence ratio, 500 uM ATP over buffer (Cy3 cluster intensity, sum of 5 cycles each) (fold (ratio)); higher = stronger signal-on switching upon ATP binding; sequences stand for … in TCGTCGGCAGCGTCAGATGTGTATAAGAGACAGTTTTTTTTTTTTTTTTTTTTTTTTT…TC
Conditions: aptamer strand: ATP DNA aptamer (quencher-CACCTGGGGGAGTATTGCGGAGGAAGG + anchor), 100 nM annealed; ATP concentration: 500 uM
Procedure, shortened: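 Values give the fluorescence ratio for each switch-domain sequence, averaged from per-cluster ratios of summed target-cycle to summed buffer-cycle Cy3 intensity. The Cy3-labelled switching-strand clusters sat on a modified Illumina MiSeq flow-cell, were annealed to 100 nM quencher-labelled ATP aptamer, and were imaged in selection buffer, then after 15 min with 500 uM ATP at 22 °C. Five cycles ran with NaOH stripping and re-annealing between them, and clusters outside 100-1000 RFU were excluded.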
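Note: ATP exposure 15 min at 22 °C before imaging.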

Row | Sequence | switch fluorescence ratio
1 | GTACCCTATG | 1.07 ± 0.029
2 | GTACCTGTCT | 0.99 ± 0.017
3 | GTACGAACTT | 1.32 ± 0.061
4 | GTACTGTGTG | 1.001 ± 0.0037
5 | GTACTTCATA | 1.03 ± 0.013
6 | GTAGAAATGT | 0.981 ± 0.027
7 | GTAGCAACGG | 1.59 ± 0.1
8 | GTAGCTGGGG | 0.98 ± 0.011
9 | GTAGGACATC | 1.01 ± 0.023
10 | GTAGGGAAAG | 1.009 ± 0.0087
11 | GTAGGGATTA | 0.9779 ± 0.0064
12 | GTAGGGGGTG | 1.02 ± 0.065
13 | GTAGGGGTTC | 0.982 ± 0.042
14 | GTAGGTAAGC | 1.03 ± 0.057
15 | GTAGGTAGGT | 0.99 ± 0.024
16 | GTAGGTTTGA | 0.994 ± 0.012
17 | GTAGTAAAAC | 1.69 ± 0.087
18 | GTAGTAAGAT | 1.07 ± 0.064
19 | GTAGTAGCTT | 1.017 ± 0.003
20 | GTAGTATTAG | 1.032 ± 0.0043
21 | GTAGTGCGGG | 0.9536 ± 0.0014
22 | GTAGTGGGGT | 0.987 ± 0.016
23 | GTAGTGTGGT | 0.999 ± 0.012
24 | GTAGTTTGCG | 0.928 ± 0.12
25 | GTAGTTTTAC | 1.042 ± 0.0071

Row | Sequence | switch fluorescence ratio
26 | GTATAAAACT | 0.9986 ± 0.0087
27 | GTATAAATGC | 0.988 ± 0.046
28 | GTATAGGGGC | 0.977 ± 0.025
29 | GTATATAAGT | 0.98 ± 0.013
30 | GTATCAACGG | 1.034 ± 0.0028
31 | GTATGAAAAG | 0.9736 ± 0.0061
32 | GTATGAAGGG | 0.9756 ± 0.0049
33 | GTATGAGGTG | 1.02 ± 0.044
34 | GTATGCGAGG | 1 ± 0.08
35 | GTATGGCGGG | 1.008 ± 0.0032
36 | GTATGGGATG | 0.993 ± 0.015
37 | GTATGGGCGG | 0.991 ± 0.035
38 | GTATGGGGTT | 0.9641 ± 0.0085
39 | GTATGTGGGG | 0.996 ± 0.038
40 | GTATTAATAT | 1.01 ± 0.04
41 | GTATTAATGT | 1.01 ± 0.011
42 | GTATTAGCTG | 0.974 ± 0.0089
43 | GTATTAGTAA | 1.006 ± 0.0038
44 | GTATTAGTGT | 1.006 ± 0.0073
45 | GTATTATCTG | 0.9495 ± 0.0038
46 | GTATTGGGGG | 1.01 ± 0.043
47 | GTATTGGGTA | 0.99 ± 0.028
48 | GTATTTACTT | 1.02 ± 0.012
49 | GTATTTATGA | 0.974 ± 0.0056
50 | GTATTTGAGT | 0.991 ± 0.0031

Row | Sequence | switch fluorescence ratio
51 | GTCAAATGGT | 0.972 ± 0.021
52 | GTCAATTTGA | 0.978 ± 0.062
53 | GTCACCAGAT | 1.002 ± 0.0077
54 | GTCACTATTG | 1.02 ± 0.0022
55 | GTCAGTATAA | 1.03 ± 0.059
56 | GTCAGTGGGG | 1.02 ± 0.052
57 | GTCAGTGGGT | 0.9682 ± 0.0079
58 | GTCATAGTTA | 0.983 ± 0.017
59 | GTCATGAGCG | 1 ± 0.012
60 | GTCATTTGTA | 0.9813 ± 0.0074
61 | GTCCAAAAAA | 1.08 ± 0.067
62 | GTCCGTGTTA | 0.994 ± 0.037
63 | GTCGAAGCCC | 1.03 ± 0.022
64 | GTCGCAAGTT | 1.01 ± 0.018
65 | GTCGCTAATG | 0.996 ± 0.016
66 | GTCGGATGCT | 1.02 ± 0.047
67 | GTCGGCAGGG | 1.06 ± 0.014
68 | GTCGGCGTAA | 0.9982 ± 0.0045
69 | GTCGGGAAGG | 1.013 ± 0.0026
70 | GTCGGGAGGA | 0.998 ± 0.025
71 | GTCGGTATTA | 0.984 ± 0.034
72 | GTCGTAATTG | 1.02 ± 0.016
73 | GTCGTAGCGA | 1.24 ± 0.016
74 | GTCGTAGTAC | 1.1974 ± 0.00024
75 | GTCGTATGAC | 1.08 ± 0.042

Row | Sequence | switch fluorescence ratio
76 | GTCGTATTAG | 0.995 ± 0.022
77 | GTCGTCGGAG | 1.03 ± 0.019
78 | GTCGTCGTCG | 0.972 ± 0.012
79 | GTCGTCTAAG | 0.973 ± 0.051
80 | GTCTAAACTT | 1.01 ± 0.013
81 | GTCTAAGGGG | 1.11 ± 0.25
82 | GTCTCAAAGA | 1.017 ± 0.0083
83 | GTCTGGGGGA | 1.03 ± 0.042
84 | GTCTTGGCTC | 1.02 ± 0.031
85 | GTGAAAAACT | 1.03 ± 0.033
86 | GTGAAAACGT | 1.04 ± 0.035
87 | GTGAAAGATT | 1.02 ± 0.041
88 | GTGAAAGGAG | 0.997 ± 0.039
89 | GTGAAAGGGG | 1.11 ± 0.17
90 | GTGAAAGGGT | 1.02 ± 0.015
91 | GTGAAGGGGA | 1.09 ± 0.11
92 | GTGAAGGGTA | 0.985 ± 0.0081
93 | GTGAATCGGG | 0.973 ± 0.032
94 | GTGACATGGA | 1 ± 0.014
95 | GTGACCGGGA | 1 ± 0.027
96 | GTGACGAGGG | 0.981 ± 0.013
97 | GTGAGAGCGG | 0.963 ± 0.033
98 | GTGAGATCGG | 0.991 ± 0.029
99 | GTGAGATGGA | 0.953 ± 0.03
100 | GTGAGATGGG | 0.984 ± 0.03
